Columns and labels:
DOR-MOR (DM) heterodimer = DOR-MOR (DM) heterodimer (Rattus norvegicus, UniProt P33533+P33535); format: binding; settings: for Effect on DM heterodimerization: DOR and MOR at 0.5-1.0 spots/µm2
DOR = DOR (Rattus norvegicus, UniProt P33533); assay: Colocalization of expressed TM peptides with WT-DOR; format: binding; settings: all molecules expressed at 0.5–1.0 fluorescent spots/µm2
DOR-KOR (DK) heterodimer = DOR-KOR (DK) heterodimer (Rattus norvegicus, UniProt P33533+P34975); assay: DK colocalization index, two-color single-molecule TIRF imaging; format: binding
Sequence of DOR-KOR (DK) heterodimer (P33533 whole entry): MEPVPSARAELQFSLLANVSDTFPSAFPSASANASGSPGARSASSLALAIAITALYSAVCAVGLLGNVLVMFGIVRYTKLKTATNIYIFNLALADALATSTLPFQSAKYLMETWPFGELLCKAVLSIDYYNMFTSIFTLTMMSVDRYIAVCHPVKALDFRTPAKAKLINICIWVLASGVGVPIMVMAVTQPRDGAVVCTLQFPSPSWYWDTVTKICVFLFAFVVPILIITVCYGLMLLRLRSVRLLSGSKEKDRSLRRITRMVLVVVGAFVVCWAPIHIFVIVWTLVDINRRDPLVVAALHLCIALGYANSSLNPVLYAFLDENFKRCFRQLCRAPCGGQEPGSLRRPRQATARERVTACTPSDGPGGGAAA
Sequence of DOR-KOR (DK) heterodimer (P34975 whole entry): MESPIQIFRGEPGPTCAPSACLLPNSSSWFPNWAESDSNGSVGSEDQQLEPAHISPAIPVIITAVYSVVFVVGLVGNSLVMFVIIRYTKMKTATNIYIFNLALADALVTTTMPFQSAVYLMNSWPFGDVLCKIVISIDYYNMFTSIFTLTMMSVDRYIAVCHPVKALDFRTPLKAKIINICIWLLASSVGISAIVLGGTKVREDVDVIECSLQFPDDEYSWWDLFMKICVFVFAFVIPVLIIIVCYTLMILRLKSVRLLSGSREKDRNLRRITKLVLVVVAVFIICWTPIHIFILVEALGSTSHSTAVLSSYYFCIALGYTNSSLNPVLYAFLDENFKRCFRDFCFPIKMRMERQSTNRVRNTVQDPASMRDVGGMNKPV

MOR-MOR (MM) homodimer = MOR-MOR (MM) homodimer (Rattus norvegicus, UniProt P33535); settings: cited from earlier work
Sequence of MOR-MOR (MM) homodimer (P33535 whole entry): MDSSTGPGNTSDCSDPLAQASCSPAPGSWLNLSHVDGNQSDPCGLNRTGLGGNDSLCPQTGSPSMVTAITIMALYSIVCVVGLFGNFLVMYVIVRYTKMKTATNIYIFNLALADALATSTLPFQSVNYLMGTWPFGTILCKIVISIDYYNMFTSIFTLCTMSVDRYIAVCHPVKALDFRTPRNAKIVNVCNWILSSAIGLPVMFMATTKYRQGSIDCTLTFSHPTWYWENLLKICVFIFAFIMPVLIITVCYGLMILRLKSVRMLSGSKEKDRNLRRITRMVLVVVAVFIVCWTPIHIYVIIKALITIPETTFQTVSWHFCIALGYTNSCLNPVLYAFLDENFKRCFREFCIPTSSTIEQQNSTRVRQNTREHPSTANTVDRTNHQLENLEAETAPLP

KOR in K-cells = KOR in K-cells (Rattus norvegicus, UniProt P34975); assay: Ca2+ mobilization via Gqi5; format: cell-based
Sequence of KOR in K-cells (P34975 whole entry): as the sequence (P34975 whole entry) above

MOR in M-cells = MOR in M-cells (Rattus norvegicus, UniProt P33535); assay: Ca2+ mobilization via Gqi5; format: cell-based; settings: [FMax-Fb]/Fb of Fluo-4
Sequence of MOR in M-cells (P33535 whole entry): as the sequence (P33535 whole entry) above

DOR in D-cells = DOR in D-cells (Rattus norvegicus, UniProt P33533)
Sequence of DOR in D-cells (P33533 whole entry): as the sequence (P33533 whole entry) above

MOR and DOR in MD-cells = MOR and DOR in MD-cells (Rattus norvegicus, UniProt P33535); assay: Ca2+ mobilization via Gqi5; format: cell-based; settings: increase greater with DAMGO than morphine
Sequence of MOR and DOR in MD-cells (P33535 whole entry): as the sequence (P33535 whole entry) above

DOR-MOR = DOR-MOR (Rattus norvegicus, UniProt P33535); assay: cAMPinG1 cAMP inhibition assay, cells expressing DOR-MOR; format: cell-based; settings: 7 µM forskolin then 50 nM DAMGO; MOR and DOR at 5-10 fluorescent spots/µm2
Sequence of DOR-MOR (P33535 whole entry): as above

MOR = MOR (Rattus norvegicus, UniProt P33535); assay: Colocalization of expressed TM peptides with WT-MOR; settings: both expressed at 0.5–1.0 fluorescent spots/µm2
Sequence of MOR (P33535 whole entry): as above

Sequence of DOR-MOR (DM) heterodimer (P33533 whole entry): as the sequence (P33533 whole entry) above
Sequence of DOR-MOR (DM) heterodimer (P33535 whole entry): as the sequence (P33535 whole entry) above
Sequence of DOR (P33533 whole entry): as the sequence (P33533 whole entry) above

Question: For “TM1^MOR: membrane-integral peptide, MOR TM1 (amino acids 71-99), expressed in the PM (ITIMALYSIVCVVGLFGNFLVMYVIVRYT; UniProt P35372 71-99, looked up, fragment)”, which “Effect on DM heterodimerization” value (DOR-MOR (DM) heterodimer) is on record?
Answer: Its value is “suppressed DM heterodimerization in an expression level-dependent manner”.

Question: What about the “Colocalization with WT-DOR” value (DOR) of the same compound?
Answer: Its value is “colocalized with DOR, like the full-length MOR”.

Question: What does the source list for “Nterm-TM1^MOR: TM1^MOR construct also containing amino acids 53-70 before the TM1 domain (GGRDSLCPPTGSPSMITAITIMALYSIVCVVGLFGNFLVMYVIVRYT; UniProt P35372 53-99, looked up, fragment)”?
Answer: Effect on DM heterodimerization (DOR-MOR (DM) heterodimer): suppressed DM heterodimerization in an expression level-dependent manner; Colocalization with WT-DOR (DOR): colocalized with DOR, like the full-length MOR

Question: For “EL3-domain peptide of MOR: peptide with the MOR EL3 sequence (IIKALVTIPETTFQTV; UniProt P35372 303-318, looked up, fragment)”, which “Blocking of DM heterodimers” value (DOR-MOR (DM) heterodimer; soluble EL3-domain peptides (Supplementary Fig. 2b)) is on record?
Answer: The value was “failed to block DM heterodimers”.

Question: What about the “Blocking of DK heterodimerization (DK colocalization index)” value (DOR-KOR (DK) heterodimer) of the same compound?
Answer: The value was “but not that of MOR, block DK heterodimerization”.

Question: With `C[C@@H](NC(=O)[C@@H](N)Cc1ccc(O)cc1)C(=O)NCC(=O)N(C)[C@@H](Cc1ccccc1)C(=O)NCCO` [DAMGO] as the compound, how does the “Effect on MM homodimerization and MM dimer lifetime” value (MOR-MOR (MM) homodimer) read?
Answer: Its value is “enhanced MM homodimerization and slightly elongated the MM dimer lifetime”.

Question: And the “Ca2+ response to M-agonist” value (KOR in K-cells)?
Answer: Its value is “No response was evident”.

Question: And the “Ca2+ signal induced by M-agonist” value (MOR in M-cells)?
Answer: Its value is “induced comparable Ca²⁺ signals”.

Question: What about the “Ca2+ response to M-agonist” value (DOR in D-cells) of the same compound?
Answer: Its value is “No response was evident”.

Question: What about the “Ca2+ response to M-agonist compared to M-cells” value (MOR and DOR in MD-cells) of the same compound?
Answer: Its value is “enhanced Ca²⁺ responses”.

Question: And the “DAMGO-induced cAMP concentration decrease via Gi” value (DOR-MOR)?
Answer: Its value is “greater when DOR was co-expressed”.

Question: For “TM1^DOR: DOR TM1 peptide expressed in the PM (ITALYSAVCAVGLLGNVLVMFGIVRYTKM; UniProt P41143 52-80, looked up, fragment)”, which “Colocalization with WT-MOR” value (MOR) is on record?
Answer: The value was “moderately colocalized with MOR”.

Source: PMC12594925 (Nature Communications, 2025)
